Test results reported in article doi:10.1101/282715 (bioRxiv, 2018).

Biological target: the molecule itself
Assay: cryo-EM structure

B1: mouse TRPC4 (residues a.a. 1-758, excluding a.a. 759-974) (natural protein, UniProt Q9QUQ5 1-758, looked up)
chain: MAQFYYKRNVNAPYRDRIPLRIVRAESELSPSEKAYLNAVEKGDYASVKKSLEEAEIYFKININCIDPLGRTALLIAIENENLELIELLLSFNVYVGDALLHAIRKEVVGAVELLLNHKKPSGEKQVPPILLDKQFSEFTPDITPIILAAHTNNYEIIKLLVQKGVSVPRPHEVRCNCVECVSSSDVDSLRHSRSRLNIYKALASPSLIALSSEDPFLTAFQLSWELQELSKVENEFKSEYEELSRQCKQFAKDLLDQTRSSRELEIILNYRDDNSLIEEQSGNDLARLKLAIKYRQKEFVAQPNCQQLLASRWYDEFPGWRRRHWAVKMVTCFIIGLLFPVFSVCYLIAPKSPLGLFIRKPFIKFICHTASYLTFLFLLLLASQHIDRSDLNRQGPPPTIVEWMILPWVLGFIWGEIKQMWDGGLQDYIHDWWNLMDFVMNSLYLATISLKIVAFVKYSALNPRESWDMWHPTLVAEALFAIANIFSSLRLISLFTANSHLGPLQISLGRMLLDILKFLFIYCLVLLAFANGLNQLYFYYEETKGLSCKGIRCEKQNNAFSTLFETLQSLFWSIFGLINLYVTNVKAQHEFTEFVGATMFGTYNVISLVVLLNMLIAMMNNSYQLIADHADIEWKFARTKLWMSYFEEGGTLPTPFNVIPSPKSLWYLVKWIWTHLCKKKMRRKPESFGTIGRRAADNLRRHHQYQEVMRNLVKRYVAAMIREAKTEEGLTEENVKELKQDISSFRFEVLGLLRGSK
stoichiometry N: 4
